The text below walks through data of publication PMC10663510 (Scientific Reports, 2023).

In series [1] the test system is T1, MSMEG-3765 (TetR-like repressor) (Mycolicibacterium (Mycobacterium) smegmatis mc2 155?), ORF:4079dac7.
T1 sequence: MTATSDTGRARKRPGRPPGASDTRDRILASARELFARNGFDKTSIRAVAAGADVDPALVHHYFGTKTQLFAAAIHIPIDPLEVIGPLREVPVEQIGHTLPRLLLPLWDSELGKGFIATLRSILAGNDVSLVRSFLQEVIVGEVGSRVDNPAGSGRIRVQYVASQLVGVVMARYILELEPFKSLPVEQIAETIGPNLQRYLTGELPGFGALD
Put plainly: EMSA. The following applies: 20 mM HEPES pH 8.0, 75 mM NaCl, 10 mM MgCl2, 5% glycerol; 20 ul, 30 C 10 min; native 8% PAGE at 4 C.

Series [2] concerns the target T2, MSMEG-3765 (TetR-like repressor) (Mycolicibacterium smegmatis, UniProt A0QYS0).
T2 construct: gene MSMEG_3765; homodimer; 211 residues per chain in model
Put plainly: EMSA, release of […] bp operator DNA. The class given is binding. The following applies: 0.2 pmol DNA, 4 pmol protein, 400 or 4000 pmol drug in 20 ul; 20 mM HEPES pH 8.0, 75 mM NaCl, 10 mM MgCl2, 30 °C. Background: In EMSA bound probe runs differently from free probe, usually more slowly.

Series [3] deals with the molecule itself. Kind of series: circular dichroism (spectrum and thermal unfolding) compared with data back-calculated from monomer and dimer models; MSMEG-3765 in 20 mM Tris HCl, 500 mM NaCl, pH 8; CD spectra 200-260 nm at 5-85 °C; melting temperature and spectrum compared with predictions (SCooP, PDBMD2CD) from predicted monomeric and dimeric structures.

As for “CTGCTGGAGTCCGCCGCCTGAGCCAGGCGTCGCCGACGCCGAAATGTGTCGACGCATCGTCTTCCCACCGGACGACGGCAGGCCTAGAATTCATTGCATGATGACTTCATCGCGCGATGAATTGTCAGCGACGGGGCCCG (double strand) [133 bp MSMEG_3762 upstream operator fragment]”, in series [1], the binding result is “binds”. For the molecule `CO[C@H]1/C=C/O[C@@]2(C)Oc3c(C)c(O)c4c(O)c(c(/C=N/N5CCN(C)CC5)c(O)c4c3C2=O)NC(=O)/C(C)=C\C=C\[C@H](C)[C@H](O)[C@@H](C)[C@@H](O)[C@@H](C)[C@H](OC(C)=O)[C@@H]1C` [rifampicin], the “EMSA, release of 133 bp operator DNA” value in series [2] was “rifampicin or ciprofloxacin are able to directly interfear with the binding of the MSMEG-3765 TetR”.

Take `O=C(O)c1cn(C2CC2)c2cc(N3CCNCC3)c(F)cc2c1=O` [ciprofloxacin]: the “EMSA, release of 133 bp operator DNA” value in series [2] was “rifampicin or ciprofloxacin are able to directly interfear with the binding of the MSMEG-3765 TetR”.

B1: TetR-like MSMEG-3765 repressor (natural protein)
chain: MTATSDTGRARKRPGRPPGASDTRDRILASARELFARNGFDKTSIRAVAAGADVDPALVHHYFGTKTQLFAAAIHIPIDPLEVIGPLREVPVEQIGHTLPRLLLPLWDSELGKGFIATLRSILAGNDVSLVRSFLQEVIVGEVGSRVDNPAGSGRIRVQYVASQLVGVVMARYILELEPFKSLPVEQIAETIGPNLQRYLTGELPGFGALD
notes: also called MSMEG-3765 TetR recombinant protein; TetR-like MSMEG-3765 protein
In the case of B1, in series [3], the binding result is reported as “binds”.
